Measurements published in patent US10280205B2, “Method for treating cancer with an activated T lymphocyte that selectively recognizes a cancer cell consisting of specific peptide” (immatics biotechnologies GmbH, priority 2015, dated 2019).

Target: HLA-A*02:01 (Homo sapiens, UniProt P04439, D140Y/D185E/D98H/E176V/E277Q/G131W/G231S/I119V/I121R/I166T/I218V/L300P/L318F/N151K/N90K/P208A/P217A/Q86G/Q94H/R138H/R169H/T345S)
Assay: MHC binding assay: UV-ligand exchange with beta2m ELISA (exchange yield)
Conditions: binding to HLA-A*02:01, β2m ELISA
From the text: Candidate peptides for T cell based therapies according to the present invention were further tested for their MHC binding capacity (affinity). The individual peptide-MHC complexes were produced by UV-ligand exchange, where a UV-sensitive peptide is cleaved upon UV-irradiation, and exchanged with the peptide of interest as analyzed. Only peptide candidates that can effectively bind and stabilize the peptide-receptive MHC molecules prevent dissociation of the MHC complexes. To determine the yield of the exchange reaction, an ELISA was performed based on the detection of the light chain (β2m) of stabilized MHC complexes. The assay was performed as generally described in Rodenko et al. (Rodenko et al., 2006).
96 well MAXISorp plates (NUNC) were coated over night with 2 ug/ml streptavidin in PBS at room temperature, washed 4× and blocked for 1 h at 37° C. in 2% BSA containing blocking buffer. […] Peptide-MHC monomers of the UV-exchange reaction were diluted 100 fold in blocking buffer. Samples were incubated for 1h at 37° C., washed four times, incubated with 2 ug/ml HRP conjugated anti-β2m for 1h at 37° C., washed again and detected with TMB solution that is stopped with […]. Absorption was measured at 450 nm. Candidate peptides that show a high exchange yield (preferably higher than 50%, most preferred higher than 75%) are generally preferred for a generation and production of antibodies or fragments thereof, and/or T cell receptors or fragments thereof, as they show sufficient avidity to the MHC molecules and prevent dissociation of the MHC complexes.

597 (KLLEGQVIQL; listed as Homo sapiens) [compound 597]
Peptide exchange (MHC class I binding score, peptide exchange yield): “+++” (≥50 = +++)

577 (VMFEDGVLMRL; listed as Homo sapiens) [compound 577]
Peptide exchange (MHC class I binding score, peptide exchange yield): “+++” (≥50 = +++)

149 (NLLELFVQL; listed as Homo sapiens) [compound 149]
Peptide exchange (MHC class I binding score, peptide exchange yield): “+++” (≥50 = +++)

343 (SLLEVNEESTV; listed as Homo sapiens) [compound 343]
Peptide exchange (MHC class I binding score, peptide exchange yield): “+++” (≥50 = +++)

502 (RLLAQVPGL; listed as Homo sapiens) [compound 502]
Peptide exchange (MHC class I binding score, peptide exchange yield): “+++” (≥50 = +++)

69 (FQLDPSSGVLVTV; listed as Homo sapiens) [compound 69]
Peptide exchange (MHC class I binding score, peptide exchange yield): “+++” (≥50 = +++)

245 (SMIDDLLGV; listed as Homo sapiens) [compound 245]
Peptide exchange (MHC class I binding score, peptide exchange yield): “+++” (≥50 = +++)

357 (SMHDLVLQV; listed as Homo sapiens) [compound 357]
Peptide exchange (MHC class I binding score, peptide exchange yield): “+++” (≥50 = +++)

119 (FLYIGDIVSL; listed as Homo sapiens) [compound 119]
Peptide exchange (MHC class I binding score, peptide exchange yield): “++++” (≥75% = ++++)

495 (FIFSEKPVFV; listed as Homo sapiens) [compound 495]
Peptide exchange (MHC class I binding score, peptide exchange yield): “+++” (≥50 = +++)

10 (FLATFPLAAV; listed as Homo sapiens) [compound 10]
Peptide exchange (MHC class I binding score, peptide exchange yield): “++++” (≥75% = ++++)

501 (LLDPNVKSIFV; listed as Homo sapiens) [compound 501]
Peptide exchange (MHC class I binding score, peptide exchange yield): “+++” (≥50 = +++)

274 (SLLFSLFEA; listed as Homo sapiens) [compound 274]
Peptide exchange (MHC class I binding score, peptide exchange yield): “++” (≥20% = ++)

608 (SLLSVSHAL; listed as Homo sapiens) [compound 608]
Peptide exchange (MHC class I binding score, peptide exchange yield): “+++” (≥50 = +++)

589 (KLYPQLPAEI; listed as Homo sapiens) [compound 589]
Peptide exchange (MHC class I binding score, peptide exchange yield): “+++” (≥50 = +++)

412 (YLDDLNEGVYI; listed as Homo sapiens) [compound 412]
Peptide exchange (MHC class I binding score, peptide exchange yield): “++” (≥20% = ++)

133 (KVLSNIHTV; listed as Homo sapiens) [compound 133]
Peptide exchange (MHC class I binding score, peptide exchange yield): “++” (≥20% = ++)

281 (ILRESTEEL; listed as Homo sapiens) [compound 281]
Peptide exchange (MHC class I binding score, peptide exchange yield): “+++” (≥50 = +++)

276 (ALFTFSPLTV; listed as Homo sapiens) [compound 276]
Peptide exchange (MHC class I binding score, peptide exchange yield): “+++” (≥50 = +++)

375 (SLTETIEGV; listed as Homo sapiens) [compound 375]
Peptide exchange (MHC class I binding score, peptide exchange yield): “++” (≥20% = ++)

369 (GLFPEHLIDV; listed as Homo sapiens) [compound 369]
Peptide exchange (MHC class I binding score, peptide exchange yield): “+++” (≥50 = +++)

98 (LIIDQADIYL; listed as Homo sapiens) [compound 98]
Peptide exchange (MHC class I binding score, peptide exchange yield): “+++” (≥50 = +++)

154 (ALDDGTPAL; listed as Homo sapiens) [compound 154]
Peptide exchange (MHC class I binding score, peptide exchange yield): “++” (≥20% = ++)

434 (KVSNSGITRV; listed as Homo sapiens) [compound 434]
Peptide exchange (MHC class I binding score, peptide exchange yield): “++” (≥20% = ++)

223 (ALLENIALYL; listed as Homo sapiens) [compound 223]
Peptide exchange (MHC class I binding score, peptide exchange yield): “+++” (≥50 = +++)

147 (SLLEAVSFL; listed as Homo sapiens) [compound 147]
Peptide exchange (MHC class I binding score, peptide exchange yield): “+++” (≥50 = +++)

487 (LLINSVFHV; listed as Homo sapiens) [compound 487]
Peptide exchange (MHC class I binding score, peptide exchange yield): “+++” (≥50 = +++)

409 (LLDAMNYHL; listed as Homo sapiens) [compound 409]
Peptide exchange (MHC class I binding score, peptide exchange yield): “++” (≥20% = ++)

43 (VLSSLEINI; listed as Homo sapiens) [compound 43]
Peptide exchange (MHC class I binding score, peptide exchange yield): “++” (≥20% = ++)

103 (TLAEEVVAL; listed as Homo sapiens) [compound 103]
Peptide exchange (MHC class I binding score, peptide exchange yield): “+++” (≥50 = +++)

488 (FLAEDPKVTL; listed as Homo sapiens) [compound 488]
Peptide exchange (MHC class I binding score, peptide exchange yield): “+++” (≥50 = +++)

19 (FMVDNEAIYDI; listed as Homo sapiens) [compound 19]
Peptide exchange (MHC class I binding score, peptide exchange yield): “++++” (≥75% = ++++)

7 (SLVGLLLYL; listed as Homo sapiens) [compound 7]
Peptide exchange (MHC class I binding score, peptide exchange yield): “++++” (≥75% = ++++)

547 (TLDITPHTV; listed as Homo sapiens) [compound 547]
Peptide exchange (MHC class I binding score, peptide exchange yield): “+++” (≥50 = +++)

313 (VLFDDELLMV; listed as Homo sapiens) [compound 313]
Peptide exchange (MHC class I binding score, peptide exchange yield): “+++” (≥50 = +++)

481 (GLIEDYEALL; listed as Homo sapiens) [compound 481]
Peptide exchange (MHC class I binding score, peptide exchange yield): “+++” (≥50 = +++)

362 (TLYGLSVLL; listed as Homo sapiens) [compound 362]
Peptide exchange (MHC class I binding score, peptide exchange yield): “+++” (≥50 = +++)

451 (LLLLDTVTMQV; listed as Homo sapiens) [compound 451]
Peptide exchange (MHC class I binding score, peptide exchange yield): “++” (≥20% = ++)

161 (ALLEGVNTV; listed as Homo sapiens) [compound 161]
Peptide exchange (MHC class I binding score, peptide exchange yield): “+++” (≥50 = +++)

42 (VLLQKIVSA; listed as Homo sapiens) [compound 42]
Peptide exchange (MHC class I binding score, peptide exchange yield): “+++” (≥50 = +++)

518 (KLNAEVACV; listed as Homo sapiens) [compound 518]
Peptide exchange (MHC class I binding score, peptide exchange yield): “+++” (≥50 = +++)

439 (YLLQEIYGI; listed as Homo sapiens) [compound 439]
Peptide exchange (MHC class I binding score, peptide exchange yield): “+++” (≥50 = +++)

371 (FLQAHLHTA; listed as Homo sapiens) [compound 371]
Peptide exchange (MHC class I binding score, peptide exchange yield): “++++” (≥75% = ++++)

265 (LLFGGTKTV; listed as Homo sapiens) [compound 265]
Peptide exchange (MHC class I binding score, peptide exchange yield): “++” (≥20% = ++)

321 (GLFEDVTQPGILL; listed as Homo sapiens) [compound 321]
Peptide exchange (MHC class I binding score, peptide exchange yield): “++++” (≥75% = ++++)

402 (VLFSGALLGL; listed as Homo sapiens) [compound 402]
Peptide exchange (MHC class I binding score, peptide exchange yield): “++” (≥20% = ++)

242 (AIAYILQGV; listed as Homo sapiens) [compound 242]
Peptide exchange (MHC class I binding score, peptide exchange yield): “++” (≥20% = ++)

68 (SLMELPRGLFL; listed as Homo sapiens) [compound 68]
Peptide exchange (MHC class I binding score, peptide exchange yield): “++++” (≥75% = ++++)

350 (ALLDVTHSELTV; listed as Homo sapiens) [compound 350]
Peptide exchange (MHC class I binding score, peptide exchange yield): “+++” (≥50 = +++)

4 (GIMEHITKI; listed as Homo sapiens) [compound 4]
Peptide exchange (MHC class I binding score, peptide exchange yield): “++++” (≥75% = ++++)

575 (YLISQVEGHQV; listed as Homo sapiens) [compound 575]
Peptide exchange (MHC class I binding score, peptide exchange yield): “+++” (≥50 = +++)

593 (GLPRFGIEMV; listed as Homo sapiens) [compound 593]
Peptide exchange (MHC class I binding score, peptide exchange yield): “+++” (≥50 = +++)

312 (IISDLTIAL; listed as Homo sapiens) [compound 312]
Peptide exchange (MHC class I binding score, peptide exchange yield): “+++” (≥50 = +++)

122 (FLLAEDDIYL; listed as Homo sapiens) [compound 122]
Peptide exchange (MHC class I binding score, peptide exchange yield): “+++” (≥50 = +++)

160 (FLFDEEIEQI; listed as Homo sapiens) [compound 160]
Peptide exchange (MHC class I binding score, peptide exchange yield): “+++” (≥50 = +++)

315 (YLQDVVEQA; listed as Homo sapiens) [compound 315]
Peptide exchange (MHC class I binding score, peptide exchange yield): “+++” (≥50 = +++)
